Test results from patent publication US20260035692, “METHOD FOR SCREENING FOR APTAMER BY SEQUENCING” (GeneMind Biosciences Co., Ltd., published 2026).

B1: 3RA positive aptamer sequence 2 (ssDNA)
DNA: CGAAGTTCAGCACTCCACGCATAGCCCTCGGAGGTCTACGAGAATGCCTACAGCCCTGTGCCCTATGCGTGCTACCGTGAA
B2: SA-positive aptamer reverse strand (ssDNA)
DNA: TTCACGGTAGCACGCATAGGCAACCAAGTAGTCATTTCGGAACCTGCGATCGGTGCGTCCATCTGACCTCTGTGCTGCT
modifications: [NONE]
B3: 3RA positive aptamer sequence 1 (ssDNA)
DNA: TCACGGTAGCACGCATAGGGGAGGATTCCGACTAAGTTTCCGTCGCATGAGCGTTGCTATGCGTGGAGTGCTGAAGTTGGC
B4: 3RA positive aptamer sequence 3 (ssDNA)
DNA: CACGGTAGCACGCATAACGCCGAGTTCCATTATAAAGTCCGCGCCCGACTACCCCCGTTATGCGTGGAGTGCTGGACATGC
B5: 3RA positive aptamer sequence 4 (ssDNA)
DNA: AATGGTCCAGCACTCCACGCATAACGAATAGGTCCTAAACGAGGGGTCAGGGAAGTCGCCGGTTATGCGTGCTACCGTGAA
B6: tagged SA-positive aptamer (GGCTAC tag) (ssDNA)
DNA: GGCTACAGCAGCACAGAGGTCAGATGGACGCACCGATCGCAGGTTCCGAAATGACTACTTGGTTGCCTATGCGTGCTACCGTGAAGGCTAC

Tests used:
Conditions in all cases: tags: Alexa Fluor 647 label (SA-alexa647); chain copies: 4
streptavidin (SA) [1] = biological target: T1, streptavidin (SA) (UniProt P22629 P22629:25-183); test: NY selection: no signal with 500 nM SA alone
T1 sequence (P22629 25-183, one chain of several): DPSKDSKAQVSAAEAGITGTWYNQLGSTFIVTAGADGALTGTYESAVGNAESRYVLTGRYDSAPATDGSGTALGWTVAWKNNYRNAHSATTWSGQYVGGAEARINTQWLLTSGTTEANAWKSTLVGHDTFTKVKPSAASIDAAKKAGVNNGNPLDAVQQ
Experimental: (3) After sequencing was completed, target protein SA at a concentration of 500 nmol/L and a combination of target proteins SA and 3RA at 500 nmol/L each were sequentially introduced into the flowcell, followed by incubation. After each incubation was completed, 300 μL of PBST was used to wash the channels. After washing was completed, a 640 nm laser was used for excitation, and the surface of the solid carrier was imaged to collect the corresponding emission signals. Before introducing the next target at each time, the channels were washed with 750 μL of NaOH to remove the previously bound target.

streptavidin (SA) [2] = biological target: T1, streptavidin (SA); test: 0 of 2808 (30% mix) and 2 of 575 (10% mix) target-bound clusters were reverse strand
streptavidin (SA) [3] = biological target: T1, streptavidin (SA); test: flowcell clusters in mixture library; signal graded with 1.95-500 nM SA-alexa647, weak below 31 nM
Experimental: (3) Into the four flow channels of the sequencing flowcell (L1, L2, L3, and L4 respectively), SA-alexa647 at concentrations of 500 nmol/L, 125 nmol/L, 31.25 nmol/L, and 1.95 nmol/L was introduced, respectively, and the flowcell was incubated for 30 minutes for in situ hybridization. After incubation, 300 μL of PBST was used to wash the channels to remove unreacted fluorescently labeled SA-alexa647.

Binder	binding result (streptavidin (SA) [1])	further results
B1	no binding	–
B2	–	binding result (streptavidin (SA) [2]): no binding
B3	no binding	–
B4	no binding	–
B5	no binding	–
B6	–	binding result (streptavidin (SA) [3]): binds
